Source: article PMC7049728, “The full-length structure of Thermus scotoductus OLD defines the ATP hydrolysis properties and catalytic mechanism of Class 1 OLD family nucleases” (Nucleic Acids Research, 2020)

Assays:
[1] = substrate: Nc1ncnc2c1ncn2[C@@H]1O[C@H](COP(=O)(O)OP(=O)(O)OP(=O)(O)O)[C@@H](O)[C@H]1O; assay: Malachite green phosphate release ATPase assay; format: biochemical, Thermus scotoductus; conditions: 65°C, 20 mM Tris-HCl pH 8, 50 mM NaCl, 5 mM MgCl2, no DNA (basal)
[2] = biological target: the molecule itself; assay: SEC-MALS; 4 mg/ml loaded on Superdex 200 10/300 Increase; 20 mM HEPES pH 7.5, 150 mM KCl, 5 mM MgCl2, 1 mM DTT; 0.7 ml/min; Ts^FL also in different nucleotide states

Row | Protein | Km [1] [µM] | kcat [1] [s⁻¹] | stoichiometry N [2]
1 | Ts OLD (Ts^FL) (Thermus scotoductus SA-01) (protein, full-length, residues 1-525, C-terminal 6xHis tag (pET21b), codon-optimized, expressed in E. coli BL21(DE3); homodimer) MLKRLQVKNFRCLEDIDLPLGPLTAIVGPNGAGKTTILRAIDLVLGDVWPSLRSFRIPQDFINFDTTRAIEITVHFDPPYTQGSFNITAFRLTCKGEDADFHVDLEPLDEGGNVPRYPSGNPLRVGTDMRNHARVLFLDHRRNLAQHLPSIRGSILGRLLQPVRREFKLQDNFKQVYEQAMDLLRTEQVKQIEKTIAETAKQMLGFLGKDAMKSMEIGFGFADPANPFNSLRLQYRESDLTLPGDELGLGIQSAIVVGIFEAFRQLGEKIGTVIIEEPEMYLHPQAQRYFYRLLCEMADKDQCQIIYSTHSPIFADVNRFEALRLVRKDRDDRVVVSYVREEDKSALDNVRNRFKLGGRFDTARNEVLFAKRALLVEGYGDRVAALQLFNQLEVDPDAECIAVVDCGGKAGIELIVGVCKALDIPFVVVHDEDVWPIDERADEETRRKQEQENKAEQEKNQRIQACAGAERVFVVQPSLEAALGIGRNASDKPYRIAEILKTVDVGQPPDALRPFVEAIRQVTRP | 180 ± 26 | 0.00733 ± 0.005 | 
2 | full-length Thermus scotoductus OLD (enzyme, UniProt E8PLM2 1-528, looked up, Thermus scotoductus OLD (Class 1 OLD family nuclease), UniProt E8PLM2, full-length, residues 1-525; codon-optimised synthetic gene in pET21b; Dimer by SEC-MALS and by crystal symmetry; The crystal model holds residues 1-142, 149-237 and 245-525; also called Ts^FL; Ts OLD; source: E. coli BL21(DE3), purified (65°C heat step, nickel column, HiTrap Q, SEC)) MLKRLQVKNFRCLEDIDLPLGPLTAIVGPNGAGKTTILRAIDLVLGDVWPSLRSFRIPQDFINFDTTRAIEITVHFDPPYTQGSFNITAFRLTCKGEDADFHVDLEPLDEGGNVPRYPSGNPLRVGTDMRNHARVLFLDHRRNLAQHLPSIRGSILGRLLQPVRREFKLQDNFKQVYEQAMDLLRTEQVKQIEKTIAETAKQMLGFLGKDAMKSMEIGFGFADPANPFNSLRLQYRESDLTLPGDELGLGIQSAIVVGIFEAFRQLGEKIGTVIIEEPEMYLHPQAQRYFYRLLCEMADKDQCQIIYSTHSPIFADVNRFEALRLVRKDRDDRVVVSYVREEDKSALDNVRNRFKLGGRFDTARNEVLFAKRALLVEGYGDRVAALQLFNQLEVDPDAECIAVVDCGGKAGIELIVGVCKALDIPFVVVHDEDVWPIDERADEETRRKQEQENKAEQEKNQRIQACAGAERVFVVQPSLEAALGIGRNASDKPYRIAEILKTVDVGQPPDALRPFVEAIRQVTRPMEE |  |  | 2
3 | Thermus scotoductus OLD N-terminal region (residues 1-369) (domain or fragment, UniProt E8PLM2 1-369, looked up, Thermus scotoductus OLD, UniProt E8PLM2, N-terminal region encompassing the ATPase domain, residues 1-369; in pET21b; also called Ts^NTR; NTR; source: E. coli BL21(DE3), purified (65°C heat step, nickel column, HiTrap Q, SEC)) MLKRLQVKNFRCLEDIDLPLGPLTAIVGPNGAGKTTILRAIDLVLGDVWPSLRSFRIPQDFINFDTTRAIEITVHFDPPYTQGSFNITAFRLTCKGEDADFHVDLEPLDEGGNVPRYPSGNPLRVGTDMRNHARVLFLDHRRNLAQHLPSIRGSILGRLLQPVRREFKLQDNFKQVYEQAMDLLRTEQVKQIEKTIAETAKQMLGFLGKDAMKSMEIGFGFADPANPFNSLRLQYRESDLTLPGDELGLGIQSAIVVGIFEAFRQLGEKIGTVIIEEPEMYLHPQAQRYFYRLLCEMADKDQCQIIYSTHSPIFADVNRFEALRLVRKDRDDRVVVSYVREEDKSALDNVRNRFKLGGRFDTARNEVLF |  |  | 2
